Substitutions are numbered along the chain they refer to. Numbered stars: 1 amine (or outer) side, 2 acyl side, 3 side chain; on linkers, the order of the positions; unused ones are H or OH. Bridge positions count the residues as written; N and C are the ends. Side chains are listed from the residue outwards. Ends that are not written are not given here. * marks the point of attachment. C20 diacid = O=C(O)CCCCCCCCCCCCCCCCCCC(=O)*; γGlu = O=C(O)[C@H](CCC(=O)[*:2])N[*:1]; AEEA = NCCOCCOCC(=O)O
T1: human calcitonin receptor (human, UniProt P30988 25-474)
T1 construct: whole, on cells; Used as membranes prepared from the transfected cells; also called hCTR; hCT
T1 sequence (looked up): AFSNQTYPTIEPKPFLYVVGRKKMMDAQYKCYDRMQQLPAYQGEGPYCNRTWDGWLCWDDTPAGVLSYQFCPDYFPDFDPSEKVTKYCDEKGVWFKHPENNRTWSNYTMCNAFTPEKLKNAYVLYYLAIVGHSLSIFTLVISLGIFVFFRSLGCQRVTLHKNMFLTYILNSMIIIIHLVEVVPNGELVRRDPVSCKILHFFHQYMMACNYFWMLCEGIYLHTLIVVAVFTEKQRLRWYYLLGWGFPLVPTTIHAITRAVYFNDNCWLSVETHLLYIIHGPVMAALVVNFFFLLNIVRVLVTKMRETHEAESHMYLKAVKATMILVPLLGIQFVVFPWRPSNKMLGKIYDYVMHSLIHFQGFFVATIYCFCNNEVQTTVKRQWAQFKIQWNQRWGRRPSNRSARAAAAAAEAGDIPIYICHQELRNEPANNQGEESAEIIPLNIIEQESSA

T2: rat calcitonin receptor (rat, UniProt P32214 25-516)
T2 construct: whole, on cells; Used as membranes prepared from the transfected cells; also called rCTR; rCT
T2 sequence (looked up): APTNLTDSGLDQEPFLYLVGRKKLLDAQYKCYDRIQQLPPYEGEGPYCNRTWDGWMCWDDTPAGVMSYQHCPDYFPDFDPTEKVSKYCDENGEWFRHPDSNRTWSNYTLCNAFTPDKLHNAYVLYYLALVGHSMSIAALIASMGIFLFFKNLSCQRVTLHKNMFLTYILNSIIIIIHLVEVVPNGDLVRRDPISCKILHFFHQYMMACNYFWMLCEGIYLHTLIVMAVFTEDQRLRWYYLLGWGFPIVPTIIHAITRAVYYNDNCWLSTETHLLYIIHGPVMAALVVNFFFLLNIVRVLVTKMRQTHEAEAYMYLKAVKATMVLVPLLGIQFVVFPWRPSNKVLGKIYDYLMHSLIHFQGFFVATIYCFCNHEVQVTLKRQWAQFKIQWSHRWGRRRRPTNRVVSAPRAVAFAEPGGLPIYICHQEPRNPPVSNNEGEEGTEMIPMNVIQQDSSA

T3: human calcitonin receptor (human, UniProt P30988 25-474)
T3 sequence (looked up): T1 sequence (looked up)

T4: human amylin receptor (amylin 3(a) receptor: human calcitonin receptor co-expressed with RAMP-3) (human, UniProt P30988 25-474; O60896 24-148, limits assumed)
T4 sequence (looked up) 1: T1 sequence (looked up)
T4 sequence (looked up) 2: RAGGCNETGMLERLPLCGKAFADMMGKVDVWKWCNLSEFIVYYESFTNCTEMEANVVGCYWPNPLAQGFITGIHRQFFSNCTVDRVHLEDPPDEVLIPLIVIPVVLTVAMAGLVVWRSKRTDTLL

B1: N^ε1-[(4S)-4-carboxy-4-(19-carboxynonadecanoylamino)butanoyl]-[His14,Arg17,Pro21,Pro27]-h-amylin (peptide)
peptide: K([γGlu-C20 diacid])CNTATCATQRLAHFLRHSSPNFGAIPSSTNVGSNTY-NH2
modifications: disulfide 2-7; N-terminus assumed
SMILES: CC[C@H](C)[C@H](NC(=O)[C@H](C)NC(=O)CNC(=O)[C@H](Cc1ccccc1)NC(=O)[C@H](CC(N)=O)NC(=O)[C@@H]1CCCN1C(=O)[C@H](CO)NC(=O)[C@H](CO)NC(=O)[C@H](Cc1c[nH]cn1)NC(=O)[C@H](CCCNC(=N)N)NC(=O)[C@H](CC(C)C)NC(=O)[C@H](Cc1ccccc1)NC(=O)[C@H](Cc1c[nH]cn1)NC(=O)[C@H](C)NC(=O)[C@H](CC(C)C)NC(=O)[C@H](CCCNC(=N)N)NC(=O)[C@H](CCC(N)=O)NC(=O)[C@@H](NC(=O)[C@H](C)NC(=O)[C@@H]1CSSC[C@H](NC(=O)[C@@H](N)CCCCNC(=O)CC[C@H](NC(=O)CCCCCCCCCCCCCCCCCCC(=O)O)C(=O)O)C(=O)N[C@@H](CC(N)=O)C(=O)N[C@@H]([C@@H](C)O)C(=O)N[C@@H](C)C(=O)N[C@@H]([C@@H](C)O)C(=O)N1)[C@@H](C)O)C(=O)N1CCC[C@H]1C(=O)N[C@@H](CO)C(=O)N[C@@H](CO)C(=O)N[C@H](C(=O)N[C@@H](CC(N)=O)C(=O)N[C@H](C(=O)NCC(=O)N[C@@H](CO)C(=O)N[C@@H](CC(N)=O)C(=O)N[C@H](C(=O)N[C@@H](Cc1ccc(O)cc1)C(N)=O)[C@@H](C)O)C(C)C)[C@@H](C)O
notes: Analogue of human amylin; disulfide and C-terminal amide as told for h-amylin; also called compound 70
B2: N^ε1-[2-[2-[2-(19-carboxynonadecanoylamino)ethoxy]ethoxy]acetyl]-[His14,Arg17,Pro21,Pro27]-h-amylin (peptide)
peptide: K([AEEA-C20 diacid])CNTATCATQRLAHFLRHSSPNFGAIPSSTNVGSNTY-NH2
modifications: disulfide 2-7; N-terminus assumed
SMILES: CC[C@H](C)[C@H](NC(=O)[C@H](C)NC(=O)CNC(=O)[C@H](Cc1ccccc1)NC(=O)[C@H](CC(N)=O)NC(=O)[C@@H]1CCCN1C(=O)[C@H](CO)NC(=O)[C@H](CO)NC(=O)[C@H](Cc1c[nH]cn1)NC(=O)[C@H](CCCNC(=N)N)NC(=O)[C@H](CC(C)C)NC(=O)[C@H](Cc1ccccc1)NC(=O)[C@H](Cc1c[nH]cn1)NC(=O)[C@H](C)NC(=O)[C@H](CC(C)C)NC(=O)[C@H](CCCNC(=N)N)NC(=O)[C@H](CCC(N)=O)NC(=O)[C@@H](NC(=O)[C@H](C)NC(=O)[C@@H]1CSSC[C@H](NC(=O)[C@@H](N)CCCCNC(=O)COCCOCCNC(=O)CCCCCCCCCCCCCCCCCCC(=O)O)C(=O)N[C@@H](CC(N)=O)C(=O)N[C@@H]([C@@H](C)O)C(=O)N[C@@H](C)C(=O)N[C@@H]([C@@H](C)O)C(=O)N1)[C@@H](C)O)C(=O)N1CCC[C@H]1C(=O)N[C@@H](CO)C(=O)N[C@@H](CO)C(=O)N[C@H](C(=O)N[C@@H](CC(N)=O)C(=O)N[C@H](C(=O)NCC(=O)N[C@@H](CO)C(=O)N[C@@H](CC(N)=O)C(=O)N[C@H](C(=O)N[C@@H](Cc1ccc(O)cc1)C(N)=O)[C@@H](C)O)C(C)C)[C@@H](C)O
notes: Analogue of human amylin; disulfide and C-terminal amide as told for h-amylin; also called compound 90
B3: N^ε1-[2-[2-[2-[[(4S)-4-carboxy-4-(19-carboxynonadecanoylamino)butanoyl]amino]ethoxy]ethoxy]acetyl]-[Arg17,Pro21,Pro27]-h-amylin (peptide)
peptide: K([AEEA-γGlu-C20 diacid])CNTATCATQRLANFLRHSSPNFGAIPSSTNVGSNTY-NH2
modifications: disulfide 2-7; N-terminus assumed
SMILES: CC[C@H](C)[C@H](NC(=O)[C@H](C)NC(=O)CNC(=O)[C@H](Cc1ccccc1)NC(=O)[C@H](CC(N)=O)NC(=O)[C@@H]1CCCN1C(=O)[C@H](CO)NC(=O)[C@H](CO)NC(=O)[C@H](Cc1c[nH]cn1)NC(=O)[C@H](CCCNC(=N)N)NC(=O)[C@H](CC(C)C)NC(=O)[C@H](Cc1ccccc1)NC(=O)[C@H](CC(N)=O)NC(=O)[C@H](C)NC(=O)[C@H](CC(C)C)NC(=O)[C@H](CCCNC(=N)N)NC(=O)[C@H](CCC(N)=O)NC(=O)[C@@H](NC(=O)[C@H](C)NC(=O)[C@@H]1CSSC[C@H](NC(=O)[C@@H](N)CCCCNC(=O)COCCOCCNC(=O)CC[C@H](NC(=O)CCCCCCCCCCCCCCCCCCC(=O)O)C(=O)O)C(=O)N[C@@H](CC(N)=O)C(=O)N[C@@H]([C@@H](C)O)C(=O)N[C@@H](C)C(=O)N[C@@H]([C@@H](C)O)C(=O)N1)[C@@H](C)O)C(=O)N1CCC[C@H]1C(=O)N[C@@H](CO)C(=O)N[C@@H](CO)C(=O)N[C@H](C(=O)N[C@@H](CC(N)=O)C(=O)N[C@H](C(=O)NCC(=O)N[C@@H](CO)C(=O)N[C@@H](CC(N)=O)C(=O)N[C@H](C(=O)N[C@@H](Cc1ccc(O)cc1)C(N)=O)[C@@H](C)O)C(C)C)[C@@H](C)O
notes: also called compound 41
B4: N^α1-[(4S)-4-carboxy-4-(19-carboxynonadecanoylamino)butanoyl]-[Arg17,Pro21,Pro27,His34]-h-amylin (peptide)
peptide: KCNTATCATQRLANFLRHSSPNFGAIPSSTNVGHNTY
modifications: alpha amino group of the N-terminal residue (Lys1) acylated with C20 diacid-gGlu; disulfide bridge Cys2-Cys7; C-terminal amide
notes: also called compound 40
B5: N^α1-[(4S)-4-carboxy-4-(19-carboxynonadecanoylamino)butanoyl]-[Arg17,Pro21,Pro27,Arg34]-h-amylin (peptide)
peptide: B4 peptide with H34R
modifications: alpha amino group of the N-terminal residue (Lys1) acylated with C20 diacid-gGlu; disulfide bridge Cys2-Cys7; C-terminal amide
notes: also called compound 39
B6: N^ε1-[(4S)-4-carboxy-4-[[(4S)-4-carboxy-4-(19-carboxynonadecanoylamino)butanoyl]amino]butanoyl]-[His14,Arg17,Pro21,Pro27]-h-amylin (peptide)
peptide: K([γGlu-γGlu-C20 diacid])CNTATCATQRLAHFLRHSSPNFGAIPSSTNVGSNTY-NH2
modifications: disulfide 2-7; N-terminus assumed
SMILES: CC[C@H](C)[C@H](NC(=O)[C@H](C)NC(=O)CNC(=O)[C@H](Cc1ccccc1)NC(=O)[C@H](CC(N)=O)NC(=O)[C@@H]1CCCN1C(=O)[C@H](CO)NC(=O)[C@H](CO)NC(=O)[C@H](Cc1c[nH]cn1)NC(=O)[C@H](CCCNC(=N)N)NC(=O)[C@H](CC(C)C)NC(=O)[C@H](Cc1ccccc1)NC(=O)[C@H](Cc1c[nH]cn1)NC(=O)[C@H](C)NC(=O)[C@H](CC(C)C)NC(=O)[C@H](CCCNC(=N)N)NC(=O)[C@H](CCC(N)=O)NC(=O)[C@@H](NC(=O)[C@H](C)NC(=O)[C@@H]1CSSC[C@H](NC(=O)[C@@H](N)CCCCNC(=O)CC[C@H](NC(=O)CC[C@H](NC(=O)CCCCCCCCCCCCCCCCCCC(=O)O)C(=O)O)C(=O)O)C(=O)N[C@@H](CC(N)=O)C(=O)N[C@@H]([C@@H](C)O)C(=O)N[C@@H](C)C(=O)N[C@@H]([C@@H](C)O)C(=O)N1)[C@@H](C)O)C(=O)N1CCC[C@H]1C(=O)N[C@@H](CO)C(=O)N[C@@H](CO)C(=O)N[C@H](C(=O)N[C@@H](CC(N)=O)C(=O)N[C@H](C(=O)NCC(=O)N[C@@H](CO)C(=O)N[C@@H](CC(N)=O)C(=O)N[C@H](C(=O)N[C@@H](Cc1ccc(O)cc1)C(N)=O)[C@@H](C)O)C(C)C)[C@@H](C)O
notes: Analogue of human amylin; disulfide and C-terminal amide as told for h-amylin; also called compound 92

How the values were obtained:
[1] = biological target: T1, human calcitonin receptor; test: ratio of binding IC50 at human calcitonin receptor to IC50 at human amylin receptor (reference)
Method in brief: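 Membranes (35 ng/μL final) + SPA beads, 50 mM Hepes pH 7.4 buffer with 1 mM CaCl2, 5 mM MgCl₂, 0.1% OA, 0.02% Tween20; 120 min, 25° C, shaking; centrifuged, counted; IC₅₀ by one-site binding competition.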

rat calcitonin receptor [2] = biological target: T2, rat calcitonin receptor; test: ratio of binding IC50 at rat calcitonin receptor to IC50 at rat amylin receptor (reference)
rat calcitonin receptor [3] = biological target: T2, rat calcitonin receptor; test: SPA competition with 125I-calcitonin, membranes with rat calcitonin receptor (Assay VIII)
[4] = biological target: T3, human calcitonin receptor; test: cell-based or functional assay
[5] = biological target: T4, human amylin receptor (amylin 3(a) …); test: cell-based or functional assay

| Binder | Ratio hCT/hAmylin binding [1] | Ratio rCT/rAmylin binding (rat calcitonin receptor [2]) | IC50 (rat calcitonin receptor [3]) | Ratio hCT/hAmylin funct. (hCTR EC50 against hAmylin-R EC50) [4] | hCTR funct. EC50 [4] | hAmylin-R funct. EC50 [5] |
| --- | --- | --- | --- | --- | --- | --- |
| B1 | 60.8 | 96.5 | 34.2 nM |  |  |  |
| B2 | 42.2 | 74.1 | 18.2 nM |  |  |  |
| B3 |  |  |  | 16.7 | 4.35 nM | 0.26 nM |
| B4 |  |  |  | 16.4 |  | 0.164 nM |
| B5 |  |  |  | 11.6 | 2.52 nM | 0.217 nM |
| B6 | 145 | 156 | 104 nM |  |  |  |
